What follows are sequences tested on MS2 coat protein (assay: apparent KD of MS2 coat protein; higher = weaker reporter binding). Settings: Eterna round: R107; input ligand: theophylline 2 mM.
Summary of the method: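 Designed RNA switches were transcribed on-chip from Illumina sequencing clusters and titrated with SNAP-549-labelled MS2 coat protein in twofold steps from 0.7 or 1.5 nM up to 3 µM. Each step lasted 0.8–1.5 h at first and 10–20 min by the end, in 100 mM Tris-HCl pH 7.5, 80 mM KCl and 4 mM MgCl2, without or with constant ligand. Apparent KD is the median, for each design, of fits to normalised cluster binding curves.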

Row | Sequence | apparent KD of MS2 coat protein
1 | UAGUACAUGAGGAUCACCCAUGUCGGAGGUCGAGGACCGGUACGGCCGCCACUCGGUCAUGCCCUACGAUACGACAGGAAUCUGU [theeternabot_sameState_MS2_Trp_A_28] | 28.9 nM
2 | UCUUGAGUUUCGGAUACCAGUGAUGUCGAUACAUGAGGAUCACCCAUGUUAGAGGAUGUACACCCUUGGCAGCCGGGUGUGGCGG [wswmullin] | 27.5 nM
3 | GGCCAGGCAGCGGCCGCCACUUAGUGGGCCGAAUGUCCUUUGCUGAACAUGAGGAUCACCCAUGUAAGGACCGGGCUGUUCCGCA [theeternabot_exclusion_MS2_Trp_B_30] | 41.5 nM
4 | UGUACUAUGUGAAGGAGCGAGAAGGAGCGAACAUGAGGAUCACCCAUGUACAGGUAGGUCGCUCAGGUAGGUCGCACAUAGUACU [ArgBS - Double aptamer] | 14.4 nM
5 | ACAUCUUGUACGGCCGCCACUAACAGAUUCAGCGUCGGAGCCAACUACAUGAGGAUCACCCAUGUUAGGACCGGGUACUGUCCAC [theeternabot_exclusion_MS2_Trp_B_47] | 21 nM
6 | ACACAUGAGGAUCACCCAUGUGCCCAUGAAGGAGCGUGGGAAACCACAGGUAGGUCGCAUGACAUGAGGAUCACCCAUGUUUAUU [Astarte] | 39.7 nM
7 | ACACAAUACAUGAGGAUCACCCAUGUAAAACGAGGACCGGUACGGCCGCCACUCGAAUACUGUAAUCCUCGGAAUAUUAAGUGAA [JR_ExcTryptA_Sub002] | 61.6 nM
8 | AGCCACUCGAGUGAUCCUCACGAGUGGCUACGAGGACCGGUACGGCCGCCACUCGAAUUAACAUGAGGAUCACCCAUGUAAUCUA [Brourdmod07] | 196 nM
9 | AAUCAUGAAAACAUGACAUGAGGAUCACUCCGAGGACCGGUACGGCCGCCACUCGCGAGGAGGCGGACAUGAGGAUCACCCAUGU [#02 Tryptophan A Same State] | 421 nM
10 | CCAUGGUUGACGGCCGCCACUCAUUAGUCUUUGAGGUUGGCACAUGAGGAUCACCCAUGUCUGCAGAGGACCGGGUCUCGCCACA [theeternabot_sameState_MS2_Trp_B_15] | 54.4 nM
11 | CCAUAAGUACCGGUCCUCAGAUCCUCAUGACGAGGACCGGUACGGCCGCCACUCGAAACAUGAGGAUCACCCAUGUAAUAAUAUC [Brourdmod17] | 66 nM
12 | AUACAUGAGGAUCACCCAUGUUACACUGAAGGAGCGACAUGUUUGUCAGGUAGGUCGCAGUGAAGUUUAAUAAUUCUUUGAUCUU [#06 Same State - Arginine A] | 26.5 nM
13 | CCGUCACAUGAGGAUCACCCAUGUGCGGAAGGAGCGGACGAUAGUCCAGGUAGGUCGCCGUAUAGCCAAUGACCAGCAGUGUCGG [XARG-A 22] | 14.8 nM

Same assay, conditions: Eterna round: R107; input ligand: tryptophan 2.4 mM

Row | Sequence | apparent KD of MS2 coat protein
14 | GGGUACAUCGCGGCCGCCACUCAUGUAAAUGCGUGAGGAUCACCCAUGCCGAUGGAGACAUCGGAGAGGACCGGGUGAUGUACCG | 46.7 nM
15 | AAAGGAAGGUAAAAUAAAACUACAUGUGAAGGAGCGCCCGAAAGGGCAGGUAGGUCGCACAUGAGGAUCACCCAUGUCCUUCCAA [ArgEX 6 #SwitchBubble] | 293 nM
16 | ACAUGAGGAUCACCCAUGUACAUCACCCGACGAGGACCGGUACGGCCGCCACUCGGGUAUAUAUAUACAUCGGGUGAUUUUGCAU [#21 Tryptophan A Same State] | 26.5 nM
17 | CUCGGGUUAUCAGAUACCAGACUAAAAUUUACAUGAGGAUCACCCAUGUAAUGGGUGAUAGUCCCUUGGCAGCUGUUAUGUUUAA [JR_ExcTheophyB_Sub001] | 70.8 nM
18 | AUACAUGAGGAUCACCCAUGUAAAGUUGAAGGAGCGACCAGAGGGUCAGGUAGGUCGCAACACAUGAGGAUCACCCAUGUAUCGA [DOUBLE!!! :-D #6] | 71.4 nM
19 | UACAUGAGGAUCACCCAUGUCUGAACUGAAGGAGCGCUAAACAAGGCAGGUAGGUCGCGGAAUUUUGUGUGCAUAUGCAUAUGGG [9.K] | 31.1 nM
20 | AUUAUAGUUUAUAAGGAAAUUGAAACAGAAGGAGCGUGAGUAAUCACAGGUAGGUCGCUGGUAGUACAUGAGGAUCACCCAUGUU [JR_Nu_SSArginiA_Sub019] | 22.4 nM
21 | UGUACCAUGUCGGCCGCCACUCAUGAUAAGCAUGAGGAUCACCCAUGUAGCGUCAAAGACGCUAUGAGGACCGGGACAUGGUACU [TryBS Zipper 2] | 13.2 nM
22 | UGGUACAUGGCGGCCGCCACUUCACGUAAAAUAAAAACGUGAGGAUCACCCACGUAAUAAGUUGGGAGGACCGGGUCAUGUACCU | 123 nM
23 | ACGACAUGAGGAUCACCCAUGUAAGGUGAUACCAGACGAAGUAAUGUCCCUUGGCAGCACAAGCAUAGUUGCGAUUAUUGUACGA [JR_SSTheophyA_Sub006] | 442 nM
24 | UCGCGAGAGGGAAGGAGCGUCAGCUGAGUCACAUGAGGAUCACCCAUGUCGCACAUAGUGUGACAGGUAGGUCGCCCUCCGCCCU [Leinticees] | 157 nM
25 | AUAACAUGAGGAUCACCCAUGUAGAGUGAUACCAGACUAUGUAAUGUCCCUUGGCAGCACAAGUAAAGUUAUAAAUAAUGAUAGA [JR_SSTheophyA_Sub001] | 136 nM
26 | GAAGGAGUUAUGGGUACUCCUUCACUGGAAGGAGCGAGCGAAAGCUCAGGUAGGUCGCCAGAAACAUGAGGAUCACCCAUGUAAU [(A)''-(M)'-(A)'-(Arg1)-(Arg2)-(M1)-(M2)_Design6] | 41.3 nM
27 | UUUAAGAACCGAAGGAGCGCCAGAAAUAAGAACGCUACAUGAGGAUCACCCAUGUAAUAAGGGCAGGUAGGUCGCGGAAUUUAAA [last] | 21.4 nM
28 | UCUUGAGUUUCGGAUACCAGUGAUGUCGAUACAUGAGGAUCACCCAUGUUAGAGGAUGUACACCCUUGGCAGCCGGGUGUGGCGG [wswmullin] | 44.9 nM
29 | UGUACUAUGUGAAGGAGCGAGAAGGAGCGAACAUGAGGAUCACCCAUGUACAGGUAGGUCGCUCAGGUAGGUCGCACAUAGUACU [ArgBS - Double aptamer] | 11.7 nM
30 | UUCUACAUGAGGAUCACCCAUGUGGGUGAUACCAGCACUUUUUGGUGCCCUUGGCAGCACAUGAGAAUACCGUACGAUCGGUGAU [Isbiti] | 508 nM
31 | AUAACAUGAGGAUCACCCAUGUAAGCAGAUACCAGCUAGGAAACUAGCCCUUGGCAGCUGCAAUCAUGGGUGUGGUAUCUGCUAA [(M1)-(M2)-(T1)-(T2)-(M)'-(T)'_Design5] | 16.4 nM
32 | ACACAUGAGGAUCACCCAUGUGCCCAUGAAGGAGCGUGGGAAACCACAGGUAGGUCGCAUGACAUGAGGAUCACCCAUGUUUAUU [Astarte] | 41.9 nM
33 | UUAGAUAUGACAGAUACCAGCGUGUUGUAGAACAUGAGGAUCACCCAUGUAGUGAUCGUGCGCCCUUGGCAGCUGGUAUGUUUGG [7.W] | 788 nM
34 | CUGCCAUGCAGAGAUACCAGUGCGCUCAGCACAUGAGGAUCACCCAUGUUGGCUGCCGAUCACCCUUGGCAGCUCUGCAUGGCAG [#04 Same State - Theophylline B] | 8.66 nM
35 | GCAUGCGAUACCGAUACCAGCUACUCCAUGGCGCUCCACAUGAGGAUCACCCAUGUAAAUAGCCCUUGGCAGCGGUAUUGAGAUG [Anrabegema] | 21 nM
36 | AUACAUGAGGAUCACCCAUGUUACACUGAAGGAGCGACAUGUUUGUCAGGUAGGUCGCAGUGAAGUUUAAUAAUUCUUUGAUCUU [#06 Same State - Arginine A] | 23.7 nM
37 | CCGUCACAUGAGGAUCACCCAUGUGCGGAAGGAGCGGACGAUAGUCCAGGUAGGUCGCCGUAUAGCCAAUGACCAGCAGUGUCGG [XARG-A 22] | 15 nM

— the supplement of paper PMC9170038
